How the values were obtained:
[1] = test system: MS2 coat protein; assay: apparent KD of MS2 coat protein, switch ON state; designed switch direction (-1 OFF switch, 1 ON switch): 1; higher = weaker reporter binding; details: FMN input: 0 or 200 uM; Eterna round: R93 (includes R88 designs)
In short: (§1)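 Each design's apparent KD comes from the median of binding-curve fits to its normalised clusters. Those clusters carried RNA switches transcribed on-chip from Illumina sequencing clusters. SNAP-549-labelled MS2 coat protein was titrated onto them in twofold steps (0.7 or 1.5 nM to 3 µM; per step 0.8–1.5 h down to 10–20 min). Conditions were 100 mM Tris-HCl pH 7.5, 80 mM KCl, 4 mM MgCl2, without or with constant ligand.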

[2] = test system: MS2 coat protein; assay: apparent KD of MS2 coat protein, switch OFF state (with FMN for OFF switches, without FMN for ON switches); designed switch direction (-1 OFF switch, 1 ON switch): 1; higher = weaker reporter binding; details: FMN input: 0 or 200 uM; Eterna round: R93 (includes R88 designs)
In short: as §1

Row | Sequence | apparent KD of MS2 coat protein [1] | apparent KD of MS2 coat protein [2]
1 | AAAAAACAUGAGGAUCACCCAUGUGACAACAUGGGAGGAUAUACGAAGACGAGAGUCGAAGUAGAAGGCCUAAAAA [Garnet 76] | 98.5 nM | 65.2 nM
2 | AAAAAACAUGAGGAUCACCCAUGUGCAAAAUUCGCAGGAUAUCCCUUUUUUAAAUGGGAGGGAGAAGGGUGAAAAA [Nob's Hobby 17 - Jieux - Same State 1] | 23.7 nM | 76 nM
3 | AAAAAACAUGAGGAUCACCCAUGUGCAAAAUUCGCAGGAUAUUCCUCAAUUAAAUGAAAGGAAGAAGGGUGAUAAA [Nob's Hobby 31 - Jieux - Same State 1] | 79.7 nM | 429 nM
4 | AAAAAAUAAAAAAAGGAUAUCUGCAGUACGACAUGAGGAUCACCCAUGUGGUACUGCAGAUAUCAAAAGAAGGAAAAAUAAAAAA [SS2: MS2 52] | 13.6 nM | 18.1 nM
5 | AAAACACAUGAGGAUCACCCAUGUAAAAACAUGGGAGGAUAUGCAUGGAAAACAUGCUAUGCAGAAGGCUCAUGUG [SS1 - 6] | 14.9 nM | 17.2 nM
6 | AAAACUACAGAUCAGGAUAUGUUUGGGUAAACAUGAGGAUCACCCAUGUGCACCCGAUAAACAACACAGAAGGGAUAACGUGGGA [Soensole] | 12.7 nM | 23.7 nM
7 | AAAAGACAUGAGGAUCACCCAUGUAAAAACUUGAGAGGAUAUGCUUGAAAAACAUGCUAUGCAGAAGGCUCUAGUC [SS1 - 16] | 21.3 nM | 28.2 nM
8 | AAAAGACAUGAGGAUCACCCAUGUAGGCCAAAGCAAGGAUAUAGGCCACAGGGACGUGGACUAGAAGGUGCACGGC [Xereedes] | 21.9 nM | 107 nM
9 | AAAAGACAUGAGGAUCACCCAUGUCAAGACAUAGGAGGAUAUGUCGUGAAAAAAGACUUGGCAGAAGGCCUUUGUC [SS1 - 47] | 14.3 nM | 16.1 nM
10 | AAAAGACAUGAGGAUCACCCAUGUCGAAAGACAUGAGGAUAUGUACAGACUUCGGUCUGUACAGAAGGCAUGAAAA [SS1 - 1067] | 17.1 nM | 68.7 nM
11 | AAAAGACAUGAGGAUCACCCAUGUCGAAAGACAUGAGGAUAUGUACAGACUUCGGUCUGUACAGAAGGCAUGUAAA [SS1 - 1068] | 16.7 nM | 50.3 nM
12 | AAAAGACAUGAGGAUCACCCAUGUCUUCGGACAUGAGGAUAUGUACAGACUUCGGUCUGUACAGAAGGCAUGAAAA [SS1 - 1065] | 18.5 nM | 48.3 nM
13 | AAAAUAAAAAGGCAGGAUAUCCAAAAUAAAACAUGAGGAUCACCCAUGUAAAUAAAAAUAAAGUGGGAGAAGGGUUAAAAAUAAAA [High Roller3] | 32.5 nM | 46.8 nM
14 | AAAAUAAAAUAAAAGGAUAUAAAAAAAUAUACAUGAGGAUCACCCAUGUAUAUAAAAAUAAAAUAAAAGAAGGAAUAAAAAUAAA [SS2 506: MS2 6] | 10.3 nM | 11.1 nM
15 | AAAAUACAUGAGGAUCACCCAUGUGAAAAUAUGGAAGGAUAUACGAAAAAUAAAUAAAACGUAGAAGGUCUAAAAA [SS! 1 MT 3] | 23.8 nM | 38.4 nM
16 | AAAAUACAUGAGGAUCACCCAUGUGAAAAUAUGGAAGGAUAUCAAUGCAAAAAAAAGCAUUGAGAAGGUCCAAAAA [SS! 1 MT 8] | 16.7 nM | 26.9 nM
17 | AAAAUACAUGAGGAUCACCCAUGUGAAAAUAUGGGAGGAUAUCAUGGAAAAAAAAAAACAUGAGAAGGCCCAAAAA [SS! 1 MT 10] | 24.8 nM | 104 nM
18 | AAAAUACAUGAGGAUCACCCAUGUGAGAAAAACGCAGGAUAUGCAAAAAAAAAAAAAAAAGCAGAAGGGUGAAAAA [SameState1-I] | 54.8 nM | 103 nM
19 | AAACAGCACAGGUAGGAUAUGUAGGGUGGUACAUGAGGAUCACCCAUGUAUCCACCCUUCGAAAGGCAGAAGGGCCUGCCGCUGC [Cealaes] | 15.4 nM | 16.6 nM
20 | AAACCACAUGAGGAUCACCCAUGUAAAAUAUACAUAGGAUAUGCGAAAAGAAACAAAGAAGCAGAAGGGUGAAAAA [75%, Ex sub1, 16] | 36.4 nM | 32.1 nM
21 | AAACCACAUGAGGAUCACCCAUGUAAAAUUAUGGGAGGAUAUACUAGAAGAAACAAAAUAGUAGAAGGCCUAAAAA [75%, Ex sub1, 33] | 15.9 nM | 74.2 nM
22 | AAACCACAUGAGGAUCACCCAUGUAAGAUAUACAUAGGAUAUGCGAAAAGAAACAAAGAAGCAGAAGGGUGAAAAA [75%, Ex sub1, 14] | 172 nM | 72.8 nM

Row | Sequence | apparent KD of MS2 coat protein [1] | apparent KD of MS2 coat protein [2]
23 | AAACCACAUGAGGAUCACCCAUGUAGAAAUAUGGGAGGAUAUACGAAAACGAAAGUCAAAGUAGAAGGCCUAAAAG [saturn 2] | 36.7 nM | 129 nM
24 | AAACCACAUGAGGAUCACCCAUGUCAAGAGAGACUAGGAUAUCUGAAUUAAUUAAAUUAAGGAGAAGGAGUGAAAA [71%, Same state of confusion2, 3] | 52.8 nM | 179 nM
25 | AAACCACAUGAGGAUCACCCAUGUGUAAAAAAUACAGGAUAUGGAAACACGAAAGUGAAACCAGAAGGGUGAAAAA [77%, Mat - Mod of Eli, 30] | 19 nM | 24.3 nM
26 | AAACCACAUGAGGAUCACCCAUGUGUAAAAAAUACAGGAUAUGGAAACACGAAAGUGAAACCAGAAGGGUGGAAAA [77%, Mat - Mod of Eli, 29] | 31.6 nM | 28.3 nM
27 | AAAGAAAAACUAGAGGAUAUCCAAGUGGUAACAUGAGGAUCACCCAUGUGAAGAAAGGAGCAUGAGGAGAAGGCUAGAAGAAAAA [JL Nando mod 25] | 19.2 nM | 82.3 nM
28 | AAAGAAAAACUAGAGGAUAUCCGAGUGGUAACAUGAGGAUCACCCAUGUGAAGAAAGGAACAUAUGGAGAAGGCUAGAAGAAAAA [JL Nando Mod 4] | 63.5 nM | 438 nM
29 | AAAGAAAAACUAGAGGAUAUCUGAAUGAUAACAUGAGGAUCACCCAUGUGAAGAAAGGAAUAUGAGGAGAAGGCUAGAAGAAAAA [JL Nando mod 19] | 33.9 nM | 44.9 nM
30 | AAAGAAAAACUAGAGGAUAUCUGAGUGGUAACAUGAGGAUCACCCAUGUGAAGAAAGGAACAUGAGGAGAAGGCUAGAAGAAAAA [JL Nando mod 13] | 23.8 nM | 44.2 nM
31 | AAAGAAAAACUAGAGGAUAUUUGAGUGGUAACAUGAGGAUCACCCAUGUGAAGAAAAGAACAUGAGGAGAAGGCUAGAAGAAAAA [JL Nando mod 15] | 23.1 nM | 42.3 nM
32 | AAAGAAAAACUAGAGGAUAUUUGAGUGGUAACAUGAGGAUCACCCAUGUGAAGAAAGGAGCAUGAGGAGAAGGCUAGAAGAAAAA [JL Nando mod 23] | 21.5 nM | 68.7 nM
33 | AAAGACACAGUGCAGGAUAUGGUAAUAGUCACAUGAGGAUCACCCAUGUUCUUUUAUAAGAACGAUCAGAAGGGCGGUGAAAAAA [SameState2 Malc#12] | 111 nM | 295 nM
34 | AAAUAAAAAAAAGAGGAUAUUCAUGUGAAAACAUGAGGAUCACCCAUGUAAAAAAAUAAAAAUAAAAAGAAGGAAAAAUAAAAAA [SS2: 83 No MS2] | 23.6 nM | 25.1 nM
35 | AAAUAAAAAAGGGAGGAUAUUCAUGUGAAAACAUGAGGAUCACCCAUGUAAAAAAAUAAAAAUAAAAAGAAGGAAAAAUAAAAAA [SS2: 80 No MS2] | 6.62 nM | 151 nM
36 | AAAUAAAGGACUGAGGAUAUACCACAUGAAACAUGAGGAUCACCCAUGUUGAAAAACAAAGGGUGGUAGAAGGCAGUCCACAAAC [Same State 2.5c ( so lets mod hyphema)] | 10.7 nM | 14.1 nM
37 | AAAUAAAGGACUGAGGAUAUACCACAUGAAACAUGAGGAUCACCCAUGUUGAAAAACAGAGGGUGGUAGAAGGUAGUCCACAAAC [Same State 2.5b ( so lets mod hyphema)] | 21.4 nM | 51.3 nM
38 | AAAUAAAUGACUAAGGAUAUAUCAGAGAAAACAUGAGGAUCACCCAUGUAAUAAUAAAAAGGGUGAUAGAAGGUAGUCAACAAACA [Pariah 4 (MS2 Riboswitches - Same State 2)] | 26 nM | 154 nM
39 | AAAUAAAUGACUAAGGAUAUUUCAGAGAAAACAUGAGGAUCACCCAUGUAAUAAUAAAAAGGGUGAGAGAAGGUAGUCAACAAAC [74%, More Paria 4] | 13.8 nM | 25.7 nM
40 | AAAUAAAUGACUGAGGAUAUAUCGAAGAAGACAUGAGGAUCACCCAUGUAAUAAUAAAAAGGGUGGUAGAAGGUAGUCAACAAAC [Mod 9 of Pariah 4 by Hyphema in Round 1] | 331 nM | 376 nM
41 | AAAUAAAUGACUGAGGAUAUAUCGAUGGGUACAUGAGGAUCACCCAUGUGUUAAUAAAAAGGGUGGUAGAAGGUAGUCAACAAAC [Mod 16 of Pariah 4 by Hyphema in Round 1] | 238 nM | 748 nM
42 | AAAUAACAUGAGGAUCACCCAUGUUACAACUUUACAGGAUAUGUGGGUGAAAAUAGCAUGACAGAAGGGUACAGUA [SameState1 Malc#35] | 171 nM | 158 nM
43 | AAAUAGUGCACUAAGGAUAUGUCGCAUGACACAUGAGGAUCACCCAUGUGGUAACACAGAGGGUGGCAGAAGGUAGUGUGCAAAC [Mod 2 of Pariah 6 (Round1) by Hyphema] | 35.7 nM | 446 nM

Source: the supplement of paper PMC9170038
